Two molecules from patent US20200405889A1 can be followed below.

The target in test [1] is human CCR2 (hCCR2) (human) (UniProt P41597). Nature of the test: autoradiography of ^64Cu-DOTA-ECL1i on human COPD lung tissue sections, co-incubation with 500-fold non-radioactive ECL1i.
In test [2] the target is mouse chemokine (C-C motif) receptor 2 (CCR2) (mouse) (UniProt P51683). Nature of the test: cell-based or functional assay.

Where no end group is shown, it is not given here. [ ]: non-standard residue; d: D form. The star is where a group is joined. maleimido‑mono‑amide‑DOTA = O=C(O)CN1CCN(CC(=O)O)CCN(CC(=O)NCCN2C(=O)CC(*)C2=O)CCN(CC(=O)O)CC1

Sequence of mouse chemokine (C-C motif) receptor 2 (CCR2) (mouse) (P51683 whole entry): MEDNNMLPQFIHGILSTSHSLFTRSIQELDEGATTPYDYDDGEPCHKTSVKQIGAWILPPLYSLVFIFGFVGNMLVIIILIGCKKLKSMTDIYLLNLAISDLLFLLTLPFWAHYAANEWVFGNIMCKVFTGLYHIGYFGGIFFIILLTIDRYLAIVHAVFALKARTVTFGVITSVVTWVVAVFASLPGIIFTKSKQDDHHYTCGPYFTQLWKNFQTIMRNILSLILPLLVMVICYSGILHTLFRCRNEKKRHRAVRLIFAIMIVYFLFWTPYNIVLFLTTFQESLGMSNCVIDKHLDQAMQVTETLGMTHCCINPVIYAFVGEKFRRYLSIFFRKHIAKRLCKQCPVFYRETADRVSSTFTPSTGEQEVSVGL
Sequence of human CCR2 (hCCR2) (human) (P41597 whole entry): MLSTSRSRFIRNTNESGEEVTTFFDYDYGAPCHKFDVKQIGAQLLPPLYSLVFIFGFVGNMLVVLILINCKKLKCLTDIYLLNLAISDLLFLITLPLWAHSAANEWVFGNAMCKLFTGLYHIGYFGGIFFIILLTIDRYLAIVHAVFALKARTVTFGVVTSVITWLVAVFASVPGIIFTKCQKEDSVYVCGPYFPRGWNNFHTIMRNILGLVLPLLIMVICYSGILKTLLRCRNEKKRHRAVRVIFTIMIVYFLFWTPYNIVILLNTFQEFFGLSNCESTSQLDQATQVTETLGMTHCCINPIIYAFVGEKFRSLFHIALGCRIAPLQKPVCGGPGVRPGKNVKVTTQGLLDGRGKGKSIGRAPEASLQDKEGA

B1: ECL1i peptide d(LGTFLKC) (peptide)
peptide: [dL]G[dT][dF][dL][dK][dC]
With B1, the percent of autoradiography signal blocked in test [1] came to 54.5%.

B2: ^64Cu-DOTA-ECL1i (peptide)
peptide: [dL]G[dT][dF][dL][dK][dC](maleimido‑mono‑amide‑DOTA)
modifications: also: DOTA chelates 64Cu
For the molecule B2, in test [2], the graft/native lung uptake ratio, PET 1 hour after transplantation, wild type B6 lung into wild type B6 recipient was 3.71; the graft/native lung uptake ratio, PET at 1 hour with co-injected non-radiolabeled ECL1i came to 1.17; the graft/native lung uptake ratio, PET at 4 hours, wild type into wild type worked out at 4.13; the graft/native lung uptake ratio, PET at 24 hours, wild type into wild type is 3.73. Moreover, in test [2], the lung PET uptake 24 h after intratracheal LPS was found to be 4.43 % ID/g, the lung PET uptake 24 h after intratracheal PBS amounted to 0.99 % ID/g, the lung PET uptake 48 h post-LPS stood at 1.04 % ID/g and the lung PET uptake 144 h post-LPS stood at 1.29 % ID/g. For the same molecule, in test [2], the lung PET uptake after low dose LPS is 1.82 % ID/g; the lung PET uptake in LPS-treated mice co-injected with excess non-radioactive ECL1i (blocked) is 0.63 % ID/g; the lung PET uptake in naive mice amounted to 0.39 % ID/g; the percent of PET signal in grafts blocked by competitive receptor blocking, wild type recipients was determined as 75%.
